Measurements published in patent publication US7700353B2, “Compositions and methods for inducing apoptosis in tumor cells” (E-P Therapeutics, Inc., priority 1998, dated 2010).

Legend:
[1] = test system: Caspase-3 mRNA in SKOV-3(A); assay: Induction of caspase-3 mRNA; format: cell-based, human
Source text: (§1) Induction of caspase-3 has been widely used as an indicator of cells undergoing apoptosis.

[2] = test system: Caspase-3 mRNA in MDA-MB-231; assay: Induction of caspase-3 mRNA; format: cell-based, human
Source text: as §1

[3] = test system: Caspase-3 mRNA in OVCAR-3(B); assay: Induction of caspase-3 mRNA; format: cell-based, human
Source text: as §1

[4] = test system: MDA-MB-231 cells; assay: Soft agar colony formation of Ea-4 cDNA transfectants; format: cell-based, human; conditions: cells transfected with Ea-4-peptide cDNA (clones E9 and E15)
Source text: Two gene constructs, CMV-IGF-1-sp-Ea-4-cDNA-IRES-EGFP and CMV-IRES-EGFP were used in the transfection studies. The first construct (FIG. 9A) contained Ea-4 peptide cDNA (with a signal peptide sequence derived from hlGF-I), a ribosome re-entry site (IRES) and an enhanced green fluorescence protein (EGFP) marker gene. […] The expression of both gene constructs was driven by a promoter from CMV. Vectors containing the recognized control sequences and marker gene are available from commercial sources (CLONTECH, Palo Alto, Calif.).
Transfection of the cells was accomplished as follows. MDA-MB-231 cells were cultured in F12/DMEM supplemented with 10% FBS and 10 ng/ml of insulin to 90% confluence. About 5×10^6 cells were harvested and resuspended in 1 mL of serum-free F12/DMEM containing 20 µg of un-linearized constructs. The cells were electroporated in a BRL Cell-Porator using the following settings: low .OMEGA., 1180 micro Faraday (µF) capacitance, and two pulses at 200 volts. Following electroporation, cells were resuspended in 12 mL of fresh growth medium and seeded into a 6-well plate to recover. Permanent transfectants expressing green fluorescence protein (GFP) were enriched in a medium containing neomycin (G418) at 1 mg/mL for ten days and followed with 500 µg/mL for continuous maintenance. […]

[5] = test system: various human cancer cell lines; assay: Killing of cancer cells in vitro (% cell growth); format: cell-based; conditions: various amounts, about 48 hours
Experimental: FIG. 20 depicts the effects of synthetic hEB-peptide on killing of various human cancer cells. About 1×10^6 cells of cancer cells were seeded in each well of a 96-well plate and various amounts of synthetic hEb-peptide were added as indicated. The cells were cultured for about 48 hours and the % of cell growth was determined.
About 1×10^6 cells of various human cancer cell lines were seeded in each well of a 96-well culture plate with various amounts of synthetic human Eb-peptide (shEb-peptide). It is specifically contemplated by the inventors that in any of the examples of the preferred embodiments described herein, synthetic or recombinant E domain peptides can be used. After incubation for about 48 hours, the growth of cells in each well was determined and compared to non-hEb-peptide controls.

[6] = test system: CCD-1112SK primary baby foreskin cells
Source text: Apoptosis of cells can also be detected by terminal deoxynucleotidyl transferase mediated dUTP nick end labeling (TUNEL) assay.

Row | Molecule | Caspase-3 mRNA ([1]; 0.04 μM) | Caspase-3 mRNA ([1]; 0.20 μM) | Caspase-3 mRNA ([1]; 1.00 μM) | Caspase-3 mRNA ([1]; 5.00 μM) | Caspase-3 mRNA ([2]; 0.04 μM) | Caspase-3 mRNA ([2]; 0.20 μM) | Caspase-3 mRNA ([2]; 1.00 μM) | Caspase-3 mRNA ([2]; 5.00 μM) | Caspase-3 mRNA ([3]; 0.04 μM) | Caspase-3 mRNA ([3]; 0.20 μM) | Caspase-3 mRNA ([3]; 1.00 μM) | Caspase-3 mRNA ([3]; 5.00 μM) | colony formation activity [4] | killing of cancer cells [5] | Apoptosis [6]
1 | rtEa-4: recombinant Ea-4 peptide of rainbow trout pro-IGF-I, 74 amino acid residues (SEQ ID NO: 2) (protein, Oncorhynchus mykiss) RSVRAQRHTDMPRTPKVSTAVQNVDRGTERRTAQHPDKTKTKKKPLSGHSHPSCKEVHQKNSSRGNTGGRNYRM | 3.0 × 10^5 ± # molecules / μg total RNA | 2.5 × 10^5 ± # molecules / μg total RNA | 3.7 × 10^5 ± # molecules / μg total RNA | 2.2 × 10^5 ± # molecules / μg total RNA | 3.9 × 10^5 ± 3.8 × 10^4 molecules / μg total RNA | 3.4 × 10^5 ± 3.1 × 10^4 molecules / μg total RNA | 4.6 × 10^5 ± 9.5 × 10^4 molecules / μg total RNA | 5.8 × 10^5 ± 1.3 × 10^4 molecules / μg total RNA | 7.8 × 10^5 ± 7.9 × 10^4 molecules / μg total RNA | 9.9 × 10^5 ± 2.0 × 10^4 molecules / μg total RNA | 1.9 × 10^5 ± 3.4 × 10^4 molecules / μg total RNA | 1.0 × 10^5 ± 1.4 × 10^4 molecules / μg total RNA | abolished |  | 
2 | hEb: chemically synthesized human Eb peptide of pro-IGF-I, 77 amino acid residues (SEQ ID NO:1) (peptide, listed as Homo sapiens) RSVRAQRHTDMPKTQKYQPPSTNKNTKSQRRKGWPKTHPGGEQKEGTEASLQIRGKKKEQRREIGSRNAECRGKKGK |  |  |  |  |  |  |  |  |  |  |  |  |  | different degrees of killing | −
